Experimental data: US9260500B2, “Peptide and use thereof” (Takeda Pharmaceutical Company Limited, priority 2009, dated 2016)
Starred links: 1 amine or outer side, 2 acyl side, 3 side chain; linkers in the order of their positions; H or OH if unused. Non-standard residues stand in square brackets, D forms with d. Primed or numbered codes have the meaning given here. *: point of attachment. Ser(Me)″ = O-methylserine, COC[C@H](N[*:1])C(=O)[*:2]; 4‑Guanidinomethylbenzoyl = N=C(N)NCc1ccc(C(=O)*)cc1; βHOAla = beta-homoalanine (β-HOAla), D- or L-form; 4Pal = N[C@@H](Cc1ccncc1)C(=O)O; Cha = N[C@@H](CC1CCCCC1)C(=O)O; Cit = NC(=O)NCCC[C@H](N)C(=O)O; Gly(cPr) = N[C@H](C(=O)O)C1CC1; Isonicotinoyl = O=C(c1ccncc1)*; dCha = N[C@H](CC1CCCCC1)C(=O)O; Isobutyryl = CC(C)C(=O)*; Iva = CC[C@](C)(N)C(=O)O; Abu = CC[C@H](N)C(=O)O; Aib = CC(C)(N)C(=O)O; Bz = O=C(c1ccccc1)*

Columns and labels:
human Y2 receptor [1] = biological target: T1, human Y2 receptor (Homo sapiens, UniProt P49146); experiment: Human Y2 Receptor G Protein Binding Assay (GBA), [35S]GTPγS; assay type: biochemical; settings: EC50 of test compound/EC50 of PYY(3-36) (PYY3-36 taken as 1), hY2R/CHO membrane fraction
T1 construct: expressed in transfected cells; membrane fraction
T1 sequence (P49146 1-381): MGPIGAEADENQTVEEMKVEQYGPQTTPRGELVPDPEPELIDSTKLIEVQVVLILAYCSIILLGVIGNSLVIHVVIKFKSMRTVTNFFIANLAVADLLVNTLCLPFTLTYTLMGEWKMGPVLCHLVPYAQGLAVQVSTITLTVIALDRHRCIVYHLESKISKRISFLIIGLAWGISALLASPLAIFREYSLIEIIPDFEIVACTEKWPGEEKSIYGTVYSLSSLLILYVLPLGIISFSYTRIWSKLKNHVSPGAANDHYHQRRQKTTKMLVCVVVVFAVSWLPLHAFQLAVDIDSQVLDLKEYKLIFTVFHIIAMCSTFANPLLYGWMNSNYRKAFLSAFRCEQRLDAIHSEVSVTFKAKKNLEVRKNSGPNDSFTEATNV
Experimental: (3) Test Method: Human Y2 Receptor G Protein Binding Assay (GBA)
The agonist activity of the compound of the present invention against the human Y2 receptor was measured by the method described below.
2 μL of the test compound, serially diluted with DMSO from 100 μM to 1 nM, was dispensed to a 96-well plate, and 100 μL of the membrane fraction, previously diluted with an assay buffer (50 mM Tris, 5 mM MgCl2, 150 mM NaCl, […], 0.03% NaN3, 0.1% BSA, pH 7.4) to 1 μg protein/mL, was dispensed thereto, subsequently, 100 μL of a [^35S]GTPγS (NEG030H, PerkinElmer, previously diluted with the assay buffer to 1 nM) was added, and they were mixed by pipetting. After incubation at room temperature for 120 minutes, the mixture was filtered through the cell harvester FilterMate (PerkinElmer) using the UniFilter-96 GF/C (PerkinElmer), and the filter was washed 3 times with a filtering buffer (50 mM Tris, 5 mM MgCl2, 150 mM NaCl, 0.03% NaN3, 0.05% CHAPS, pH 7.4). Thereafter, UniFilter-96 GF/C was dried in a mechanical drier for 1 hour, 15 μl of the liquid scintillator MicroScint O (PerkinElmer) was added to each well, and a measurement was taken using TopCount (PerkinElmer). The data obtained were analyzed using Prism to calculate the EC50 value. The agonist activity of the test compound was expressed as a ratio to the EC50 value of PYY3-36 taken as 1 (EC50 Ratio: EC50 of test compound/EC50 of PYY(3-36)). The results are shown in the GBA column in Table 5 (Table 5-1-Table 5-10).

human Y2 receptor [2] = biological target: T1, human Y2 receptor; experiment: Receptor Binding Assay (RBA) for Human Y2, [125I]-PYY displacement on hY2R/CHO membrane fraction; settings: IC50 of test compound/IC50 of PYY(3-36) (PYY(3-36) taken as 1)
Experimental: (1) Construction of Expression Plasmid for the Human Y2 Receptor (Y2R) Gene
PCR was performed by a reaction using Pfu DNA polymerase ([…]), with a human brain cDNA (PT3158-1, Clontech) as the template, wherein synthetic DNAs with the following sequences were used as a combination of 5′ and 3′ primers, whereby the human Y2R gene was cloned. Primer 1 was prepared on the basis of base sequence information on the human Y2R gene (Refseq ID No. NM_000910) with the addition of Kozak's consensus sequence. Primer 2 was prepared on the basis of base sequence information on the human Y2R gene.
The PCR product obtained was cloned into pCR4-Blunt-TOPO (Invitrogen), and the plasmid was extracted according to a conventional method (QIAwell 8 Plus, QIAGEN). After confirming the base sequence, the human Y2R gene was re-cloned by a PCR reaction with the plasmid DNA as the template, using Primer 1 as the 5′ primer and Primer 2 as the 3′ primer. The PCR was performed using the Pyrobest DNA polymerase (TaKaRa). The PCR product obtained was re-cloned into pCR-Blunt II-TOPO (Invitrogen), and the plasmid was extracted according to a conventional method (QIAGEN). An Xho I restriction enzyme digestion site and an Spe I restriction enzyme digestion site are present in the cloning site of the pCR-Blunt II-TOPO; a plasmid clone was selected wherein the human Y2R gene was inserted in the orientation such that the Xho I restriction enzyme digestion site was positioned upstream of Primer 1, and the Spe I restriction enzyme digestion site was positioned downstream of Primer 2. After confirming the base sequence, the plasmid clone was digested with the restriction enzymes Xho I and Spe I to yield a DNA fragment. The DNA fragment was inserted into the animal cell expression vector pAKKO-111H (the same plasmid as pAKKO-1.111H described in Biochem. Biophys. Acta, Hinuma, S. et al., 1219, 251-259 (1994)), which was enzymatically digested with Sal I and Spe I, to yield the expression plasmid pAK-hY2R (pAKKO-111H/Y2R).
(2) Test Method: Receptor Binding Assay (RBA) for Human Y2
A human NPY2R (hY2R) stable expression cell line was acquired by transducing the animal cell expression plasmid pAK-hY2R into CHO/dhfr-cells using the CellPhect Transfection kit (Amersham Pharmacia Biotech Co.). First, 240 μl of Buffer A (attached to the CellPhect Transfection kit) was added to 9.6 μg of the plasmid DNA dissolved in 240 μl of distilled water; this mixture was stirred and allowed to stand for 10 minutes, after which 480 μL of Buffer B (attached to the CellPhect Transfection kit) was added, and the mixture was vigorously stirred to form a liposome containing the DNA. 2.5×10^5 or 4×10^5 CHO/dhfr− cells (obtained from ATCC) were seeded to 60 mm petri dishes, and cultured in Ham's F-12 medium (Sigma Co.) containing 10% fetal bovine serum (BioWest Co.) at 37° C. in 5% gaseous carbon dioxide for 1 day, after which 480 μL of the liposome was added drop by drop on to the cells in each petri dish. This was cultured at 37° C. in 5% gaseous carbon dioxide for 6 hours, after which the cells were twice washed with serum-free Ham's F-12 medium; 3 mL of 15% glycerol was added onto the cells in the petri dish and treated for 2 minutes. This was again washed 3 times with serum-free Ham's F-12 medium, after which the cells were cultured in Ham's F-12 medium containing 10% fetal bovine serum at 37° C. in 5% gaseous carbon dioxide. The cells were dispersed by trypsinization and recovered from the petri dishes, and seeded to a 6-well plate at 2.5×10^4 or 4×10^4 cells per well; cultivation was begun in Dulbecco's modified Eagle medium <DMEM> medium (Sigma Co.) containing dialyzed 10% fetal bovine serum (Invitrogen Co.) at 37° C. in 5% gaseous carbon dioxide. Since plasmid-introduced transformant CHO cells grow in the medium, whereas cells without plasmid introduction die gradually, about 20 colonies of transformed CHO cell that had grown 9-13 days after the start of the cultivation were isolated. […]

Ac-[β-HOAla24, Pya(4)26, Cha27,36, Aib28,31, Lys30]-PYY(23-36) [compound No. 244] (Ac-S[βHOAla]R[4Pal][Cha][Aib]NK[Aib]TRQR[Cha]-NH2; also: former peak, β-HOAla D/L configuration not assigned)
GBA EC50 Ratio (human Y2 receptor [1]): 2.8 | RBA IC50 Ratio (human Y2 receptor [2]): 2.4

Ac-[D-Cha24, Abu26, Cha27,28,36, Aib31]-PYY(24-36) (Ac-[dCha]R[Abu][Cha][Cha]NL[Aib]TRQR[Cha]-NH2; SMILES CC[C@H](NC(=O)[C@H](CCCNC(=N)N)NC(=O)[C@@H](CC1CCCCC1)NC(C)=O)C(=O)N[C@@H](CC1CCCCC1)C(=O)N[C@@H](CC1CCCCC1)C(=O)N[C@@H](CC(N)=O)C(=O)N[C@@H](CC(C)C)C(=O)NC(C)(C)C(=O)N[C@H](C(=O)N[C@@H](CCCNC(=N)N)C(=O)N[C@@H](CCC(N)=O)C(=O)N[C@@H](CCCNC(=N)N)C(=O)N[C@@H](CC1CCCCC1)C(N)=O)[C@@H](C)O) [compound No. 84]
GBA EC50 Ratio (human Y2 receptor [1]): 13 | RBA IC50 Ratio (human Y2 receptor [2]): 15

4-Guanidinomethylbenzoyl-[Iva25, Cha27,36, Aib28,31, Lys30]-PYY(25-36) ({4‑Guanidinomethylbenzoyl}-[Iva]H[Cha][Aib]NK[Aib]TRQR[Cha]-NH2; SMILES CC[C@](C)(NC(=O)c1ccc(CNC(=N)N)cc1)C(=O)N[C@@H](Cc1c[nH]cn1)C(=O)N[C@@H](CC1CCCCC1)C(=O)NC(C)(C)C(=O)N[C@@H](CC(N)=O)C(=O)N[C@@H](CCCCN)C(=O)NC(C)(C)C(=O)N[C@H](C(=O)N[C@@H](CCCNC(=N)N)C(=O)N[C@@H](CCC(N)=O)C(=O)N[C@@H](CCCNC(=N)N)C(=O)N[C@@H](CC1CCCCC1)C(N)=O)[C@@H](C)O) [compound No. 252]
GBA EC50 Ratio (human Y2 receptor [1]): 2.8 | RBA IC50 Ratio (human Y2 receptor [2]): 6.3

4-Pyridinecarbonyl-[Glu23, D-Pro24, Pya(4)26, Cha27,36, Aib28,31, Lys30]-PYY(23-36) (Isonicotinoyl-E[dP]R[4Pal][Cha][Aib]NK[Aib]TRQR[Cha]-NH2; SMILES C[C@@H](O)[C@H](NC(=O)C(C)(C)NC(=O)[C@H](CCCCN)NC(=O)[C@H](CC(N)=O)NC(=O)C(C)(C)NC(=O)[C@H](CC1CCCCC1)NC(=O)[C@H](Cc1ccncc1)NC(=O)[C@H](CCCNC(=N)N)NC(=O)[C@H]1CCCN1C(=O)[C@H](CCC(=O)O)NC(=O)c1ccncc1)C(=O)N[C@@H](CCCNC(=N)N)C(=O)N[C@@H](CCC(N)=O)C(=O)N[C@@H](CCCNC(=N)N)C(=O)N[C@@H](CC1CCCCC1)C(N)=O) [compound No. 215]
GBA EC50 Ratio (human Y2 receptor [1]): 1.8 | RBA IC50 Ratio (human Y2 receptor [2]): 1.9

Ac-[D-Pro24, Har25, Pya(4)26, Cha27,36, Aib28,31, Lys30]-PYY(23-36) [compound No. 289]
GBA EC50 Ratio (human Y2 receptor [1]): 1.4 | RBA IC50 Ratio (human Y2 receptor [2]): 0.82

Isobutanoyl-[Abu26, Cha27,36, Pya(4)28, Aib31]-PYY(25-36) (Isobutyryl-R[Abu][Cha][4Pal]NL[Aib]TRQR[Cha]-NH2; SMILES CC[C@H](NC(=O)[C@H](CCCNC(=N)N)NC(=O)C(C)C)C(=O)N[C@@H](CC1CCCCC1)C(=O)N[C@@H](Cc1ccncc1)C(=O)N[C@@H](CC(N)=O)C(=O)N[C@@H](CC(C)C)C(=O)NC(C)(C)C(=O)N[C@H](C(=O)N[C@@H](CCCNC(=N)N)C(=O)N[C@@H](CCC(N)=O)C(=O)N[C@@H](CCCNC(=N)N)C(=O)N[C@@H](CC1CCCCC1)C(N)=O)[C@@H](C)O) [compound No. 83]
GBA EC50 Ratio (human Y2 receptor [1]): 22 | RBA IC50 Ratio (human Y2 receptor [2]): 26

Benzoyl-[Ser(Me)26, Cha27,28,36, Aib31]-PYY(25-36) (Bz-R[Ser(Me)″][Cha][Cha]NL[Aib]TRQR[Cha]-NH2; SMILES COC[C@H](NC(=O)[C@H](CCCNC(=N)N)NC(=O)c1ccccc1)C(=O)N[C@@H](CC1CCCCC1)C(=O)N[C@@H](CC1CCCCC1)C(=O)N[C@@H](CC(N)=O)C(=O)N[C@@H](CC(C)C)C(=O)NC(C)(C)C(=O)N[C@H](C(=O)N[C@@H](CCCNC(=N)N)C(=O)N[C@@H](CCC(N)=O)C(=O)N[C@@H](CCCNC(=N)N)C(=O)N[C@@H](CC1CCCCC1)C(N)=O)[C@@H](C)O) [compound No. 98]
GBA EC50 Ratio (human Y2 receptor [1]): 8.7 | RBA IC50 Ratio (human Y2 receptor [2]): 18

Ac-[D-Pro24, Pya(4)26, Cha27,36, Aib28,31, Cit30]-PYY(23-36) (Ac-S[dP]R[4Pal][Cha][Aib]N[Cit][Aib]TRQR[Cha]-NH2; SMILES CC(=O)N[C@@H](CO)C(=O)N1CCC[C@@H]1C(=O)N[C@@H](CCCNC(=N)N)C(=O)N[C@@H](Cc1ccncc1)C(=O)N[C@@H](CC1CCCCC1)C(=O)NC(C)(C)C(=O)N[C@@H](CC(N)=O)C(=O)N[C@@H](CCCNC(N)=O)C(=O)NC(C)(C)C(=O)N[C@H](C(=O)N[C@@H](CCCNC(=N)N)C(=O)N[C@@H](CCC(N)=O)C(=O)N[C@@H](CCCNC(=N)N)C(=O)N[C@@H](CC1CCCCC1)C(N)=O)[C@@H](C)O) [compound No. 266]
GBA EC50 Ratio (human Y2 receptor [1]): 3.1 | RBA IC50 Ratio (human Y2 receptor [2]): 2.7

Isobutanoyl-[Abu26, Cha27,28,36, Gly(cPr)31]-PYY(25-36) (Isobutyryl-R[Abu][Cha][Cha]NL[Gly(cPr)]TRQR[Cha]-NH2; SMILES CC[C@H](NC(=O)[C@H](CCCNC(=N)N)NC(=O)C(C)C)C(=O)N[C@@H](CC1CCCCC1)C(=O)N[C@@H](CC1CCCCC1)C(=O)N[C@@H](CC(N)=O)C(=O)N[C@@H](CC(C)C)C(=O)N[C@H](C(=O)N[C@H](C(=O)N[C@@H](CCCNC(=N)N)C(=O)N[C@@H](CCC(N)=O)C(=O)N[C@@H](CCCNC(=N)N)C(=O)N[C@@H](CC1CCCCC1)C(N)=O)[C@@H](C)O)C1CC1) [compound No. 88]
GBA EC50 Ratio (human Y2 receptor [1]): 16 | RBA IC50 Ratio (human Y2 receptor [2]): 25
